Measured values taken from patent US20250135039A1, “INHIBITOR-RESISTANT MGMT MODIFICATIONS AND MODIFICATION OF MGMT-ENCODING NUCLEIC ACIDS” (Ensoma, Inc., priority 2022, published 2025).

Test system: U251 human glioblastoma cell line
Experiment: in vitro FM-HCR assay of MGMT activity (mPlum O^6MeG reporter plasmid)
Format: cell-based
Details: for Reporter expression (%) mean, O^6BG: 100 μM O^6BG; for Reporter expression (%) mean, O^6BG / Reporter expression (%) mean, DMSO: U251 cells, flow cytometry 24 h after transfection, damaged/undamaged reporter, inversely related to MGMT activity; for Reporter expression (%) mean, DMSO: 0.1% DMSO; for MGMT activity (a.u.) DMSO / MGMT activity (% of WT) DMSO: DMSO condition; for MGMT activity (a.u.) DMSO / MGMT activity (a.u.) O^6BG: determined from percent reporter expression; for MGMT activity (% of WT) DMSO / MGMT activity (% of WT) O^6BG: relative to wild-type MGMT in same condition; for Relative MGMT activity (%): MGMT activity (a.u.) in O^6BG divided by DMSO x 100, higher values indicate resistance; for MGMT activity (a.u.) O^6BG / MGMT activity (% of WT) O^6BG: O^6BG condition; for Ratio percent reporter expression (O^6BG/DMSO): lower values indicate resistance to O^6BG; for O^6BG resistance relative to WT (%): percentage difference in relative MGMT activity between variant and wild-type MGMT
Source text: The present Example includes, in part, an in vitro fluorescence multiplex host cell reactivation (FM-HCR) assay in which a reporter plasmid with O^6MeG-containing oligonucleotides is used. The oligonucleotides induce transcription errors that lead to expression of fluorescent mPlum protein. Functional MGMT will repair the O^6MeG sites and reduce mPlum expression. This represents a rapid and validated assay system to assess intracellular activity of MGMT. Further description of certain such assays is found in Nagel (2014 PNAS USA 111 (18): E1823-32, which is incorporated herein by reference.
The present Example uses an in vitro FM-HCR assay in which a reporter plasmid with 0° MeG-containing oligonucleotides is used to assay MGMT activity in cells. The O^6MeG-containing oligonucleotides induce transcription errors that lead to expression of fluorescent mPlum protein. Functional MGMT will repair the O'MeG sites and reduce mPlum expression. This represents a rapid and validated assay system to assess intracellular activity of MGMT. Further description of certain such assays is found in Nagel et al., 2014 PNAS USA 111 (18): E1823-32 and Piett et al., 2021 Nat. Protoc. 16 (9): 4265-4298, each of which is incorporated herein by reference.
The in vitro FM-HCR assay was performed using the U251 human glioblastoma cell line. The cells were cultured in DMEM with 10% FBS and passaged every three days.
To express MGMT variants in the cells, plasmids encoding each MGMT variant were designed and generated by either de novo synthesis or cloning into the pTwist EF1 Alpha Puro vector at the HindII-BamHI multiple cloning site. The pTwist EF1 Alpha Puro plasmid vector drives expression of the MGMT transcript from a human EF1-alpha promoter including intron 1 and an SV40 polyadenylation signal. Plasmids encoding the MGMT variants were purified using standard molecular biology techniques from E. coli with low endotoxins. Plasmids encoding wild-type MGMT or O^6BG-resistant MGMT^P140K were also designed and generated for use as controls.
To perform the in vitro FM-HCR assay, U251 cells were seeded in 12-well plates at a density of 50,000 cells per well in 1 mL culture media. The following day, the media was changed to 1 mL of culture media containing O^6BG (100 μM O^6BG and 0.1% DMSO final) or 0.1% DMSO; and the cells were transfected with 1,000 ng of a plasmid cocktail using Lipofectamine 3000 (ThermoFisher Scientific) at 1.8 μL Lipofectamine 3000 Reagent and 2 μL P3000 reagent in Opti-MEM medium (ThermoFisher Scientific). […] For the “undamaged” condition, the plasmid cocktail replaced the mPlum O^6MeG reporter plasmid with 100 ng of a plasmid expressing mPlum. The plasmid encoding BFP was used as an internal transfection control. For transfections where no MGMT encoding plasmid is used (no pMGMT), 250 ng of additional carrier plasmid was used to maintain a total DNA amount of 1,000 ng in each transfection. Four hours after transfection, the transfection medium was changed.
All transfected cells were analyzed by flow cytometry at 24-hours after transfection. Data was analyzed as previously described in Nagel et al., 2014 PNAS USA 111 (18): E1823-32 and Piett et al., 2021 Nat. Protoc. 16 (9): 4265-4298. For each condition, normalized reporter expression was determined by taking the product of the mPlum-positive cell count and the mean mPlum fluorescence intensity in mPlum-positive cells and dividing it by the product of the BFP-positive cell count and the mean BFP fluorescence intensity in BFP-positive cells. Next, for each MGMT variant, the percent reporter expression was determined by taking the normalized reporter expression in the “damaged” condition and dividing it by the normalized reporter expression in the “undamaged” condition, and then multiplying by 100 to obtain a percent value. […]

Row | Molecule | Reporter expression (%) mean, O^6BG | Reporter expression (%) mean, DMSO | MGMT activity (a.u.) DMSO | MGMT activity (% of WT) DMSO | Relative MGMT activity (%) | MGMT activity (a.u.) O^6BG | MGMT activity (% of WT) O^6BG | Ratio percent reporter expression (O^6BG/DMSO) | O^6BG resistance relative to WT (%)
1 | P140K: O^6BG-resistant MGMT polypeptide with K at position 140, SEQ ID NO: 8; used as control (protein, REGION 1..207: note = Synthetic: MGMTP140K, used as control) MDKDCEMKRTTLDSPLGKLELSGCEQGLHEIKLLGKGTSAADAVEVPAPAAVLGGPEPLMQCTAWLNAYFHQPEAIEEFPVPALHHPVFQQESFTRQVLWKLLKVVKFGEVISYQQLAALAGNPKAARAVGGAMRGNPVKILIPCHRVVCSSGAVGNYSGGLAVKEWLLAHEGHRLGKPGLGGSSGLAGAWLKGAGATSGSPPAGRN | 34.8% | 30.2% | 3.31 a.u. | 61.3 % of WT | 86.8% | 2.87 a.u. | 201.1 % of WT | 1.15 | 228.4%
2 | L33P: MGMT polypeptide with mutation L33P (protein) MDKDCEMKRTTLDSPLGKLELSGCEQGLHEIKPLGKGTSAADAVEVPAPAAVLGGPEPLMQCTAWLNAYFHQPEAIEEFPVPALHHPVFQQESFTRQVLWKLLKVVKFGEVISYQQLAALAGNPKAARAVGGAMRGNPVPILIPCHRVVCSSGAVGNYSGGLAVKEWLLAHEGHRLGKPGLGGSSGLAGAWLKGAGATSGSPPAGRN | 54.7% | 12.3% | 8.11 a.u. | 150.0 % of WT | 22.6% | 1.83 a.u. | 128.0 % of WT | 4.43 | −14.6%
3 | L33F: MGMT polypeptide with mutation L33F (protein) MDKDCEMKRTTLDSPLGKLELSGCEQGLHEIKFLGKGTSAADAVEVPAPAAVLGGPEPLMQCTAWLNAYFHQPEAIEEFPVPALHHPVFQQESFTRQVLWKLLKVVKFGEVISYQQLAALAGNPKAARAVGGAMRGNPVPILIPCHRVVCSSGAVGNYSGGLAVKEWLLAHEGHRLGKPGLGGSSGLAGAWLKGAGATSGSPPAGRN | 77.0% | 14.3% | 6.98 a.u. | 129.1 % of WT | 18.6% | 1.30 a.u. | 90.9 % of WT | 5.37 | −29.6%
4 | L33K: MGMT polypeptide with mutation L33K (protein) MDKDCEMKRTTLDSPLGKLELSGCEQGLHEIKKLGKGTSAADAVEVPAPAAVLGGPEPLMQCTAWLNAYFHQPEAIEEFPVPALHHPVFQQESFTRQVLWKLLKVVKFGEVISYQQLAALAGNPKAARAVGGAMRGNPVPILIPCHRVVCSSGAVGNYSGGLAVKEWLLAHEGHRLGKPGLGGSSGLAGAWLKGAGATSGSPPAGRN | 62.3% | 16.0% | 6.25 a.u. | 115.6 % of WT | 25.7% | 1.61 a.u. | 112.4 % of WT | 3.89 | −2.7%
